PMC10616847

Key:
[1] = target: thrombin-specific peptide with the cleavage site
[2] = target: thrombin-specific peptide with the cleavage site; assay: single-particle plasmon sensing (dark-field scattering microscopy of gold nanorods); same sensor; standard deviation of the start time t0 of cleavage among particles against thrombin concentration, fitted with Poisson statistics of the waiting time for the first enzyme to bind to a particle; additional uncertainty of 20 s allowed
[3] = target: thrombin-specific peptide with the cleavage site; assay: single-particle plasmon sensing (dark-field scattering microscopy of gold nanorods); peptide held on gold nanorods on a coverslip in a flow cell; thrombin 1-300 nM injected at 5 uL/min in 50 mM Tris-HCl, 10 mM CaCl2, 150 mM NaCl, pH 8.4; rate constants of a three-stage kinetic model adjusted to match the plasmon-shift time traces

Sequence of thrombin-specific peptide with the cleavage site (peptide, as listed by the source): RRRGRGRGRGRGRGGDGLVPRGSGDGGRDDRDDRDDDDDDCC

active thrombin (enzyme)
peptide cleavage rate kb from the kinetic model matched to the plasmon-shift time traces [1]: 0.01 s^–1 | kon [2]: 100000 M⁻¹ s⁻¹ | kon [3]: 200000 M⁻¹ s⁻¹
